For one substance, KD results are on record in paper PMC5430633, “Phosphorylation of the mitochondrial autophagy receptor Nix enhances its interaction with LC3 proteins” (Scientific Reports, 2017).

The target of this assay is LC3B (UniProt Q9GZQ8). Put plainly: NMR titration of labelled LC3B. Conditions: reference: unphosphorylated peptide P0; sites S34,S35.

Turning to “Nix (from UniProt O60238) pS34 pS35 peptide P2”, the KD result is on record as “stronger; reference ~100”.
